Source: paper PMC11279616 (Pharmaceuticals, 2024)
“And” between values parts separate entries of the source, which are not always exact repeats. Equal entries are not always repeated.

Biological target: SARS-CoV-2 Omicron BA.5 sublineage receptor binding domain (RBD) (SARS-CoV-2) (UniProt P0DTC2)
Assay: SPR

DPP4_(270–295) peptide
Kd: 1.2 µM and 1.53 µM
koff: 0.0014 s⁻¹
kon: 1160 M⁻¹ s⁻¹
